Assay results reported in PMC7592216.

Tested on: eIF4E (eukaryotic translation initiation factor 4E, cap-binding protein) (wheat)
Assay: EMSA
Conditions: 10 mM HEPES pH 7.5, 20 mM KCl, 1 mM DTT, 3 mM MgCl2, 0.1 ug/ul yeast tRNA, 1 ug/ul BSA, 1 U/ul RNaseOUT, 20 mM Tris-HCl/10% glycerol; 25 min on ice; 10 fmol …

Which Kd does the source give for MTE (MCMV 3' CITE), uncapped here?
The Kd was 0.08 µM.
